How the values were obtained:
[1] = target: the molecule itself; assay: SEC-MALS; highly oligomeric SEC peak; Superdex 200 10/300, 20 mM Tris-HCl pH 8.0, 150 mM NaCl, 0.4 ml/min, 25°C
[2] = target: the molecule itself; assay: SEC-MALS; dimer-sized SEC peak; Superdex 200 10/300, 20 mM Tris-HCl pH 8.0, 150 mM NaCl, 0.4 ml/min, 25°C

B1: MurG from Acinetobacter baumannii (abMurG), full length, wild type (enzyme, UniProt A3M9Y1 1-365, looked up)
chain: MTDSQQSKPKHVMMMAAGTGGHVFPALAVAKQLQQQGCQVSWLATPTGMENRLLKDQNIPIYQIDIQGVRGNGVIRKLAAPFKILKATFSAMRYMKQLKVDAVAGFGGYVAGPGGLAARLLGIPVLIHEQNAVAGFTNAQLSRVAKVVCEAFPNTFPASEKVVTTGNPVRREITDILSPKWRYDEREQADKPLNILIVGGSLGAKALNERLPPALKQLEVPLNIFHQCGQQQVEATQALYADAPANLTIQVLPFIEDMAKAYSEADLIICRAGALTVTEVATAGVAAVFVPLPIAVDDHQTANAKFLADIGAAKICQQSTMTPEVLNQLFTTLMNRQLLTEMAVKARQHAQPNATQHVVDLIQKM
notes: MurG glycosyltransferase of Acinetobacter baumannii, full length, amino acids Met1-Met365 (365 amino acids); Theoretical mass with the C-terminal His tag is printed as 39.4 kDa; Found as a dimer and as a hexamer in solution; only the large-size SEC peak crystallized; also called wild-type abMurG; source: E. coli BL21 (DE3), purified (nickel-nitrilotriacetic acid resin, SEC); not shown: His tag, …
[1]
  stoichiometry N: 6
[2]
  stoichiometry N: 2
